Measured values taken from patent US7351690B2, “Knockout identification of target-specific sites in peptides” (priority 2000, dated 2008).
Square brackets hold non-standard residues; d marks the D form. Ends that are not written are not given here. pGlu = O=C1CC[C@@H](C(=O)O)N1; Nle = CCCC[C@H](N)C(=O)O

What was measured:
hMC4-R = biological target: T1, hMC4-R (Homo sapiens, UniProt P32245); assay: competitive inhibition binding assay, 125I-NDP-alpha-MSH, hMC4-R membranes; conditions: 1 μM test peptide; 0.4 nM 125I-NDP-alpha-MSH; hMC4-R membranes
T1 construct: expressed in transfected cells
T1 sequence (P32245 whole entry): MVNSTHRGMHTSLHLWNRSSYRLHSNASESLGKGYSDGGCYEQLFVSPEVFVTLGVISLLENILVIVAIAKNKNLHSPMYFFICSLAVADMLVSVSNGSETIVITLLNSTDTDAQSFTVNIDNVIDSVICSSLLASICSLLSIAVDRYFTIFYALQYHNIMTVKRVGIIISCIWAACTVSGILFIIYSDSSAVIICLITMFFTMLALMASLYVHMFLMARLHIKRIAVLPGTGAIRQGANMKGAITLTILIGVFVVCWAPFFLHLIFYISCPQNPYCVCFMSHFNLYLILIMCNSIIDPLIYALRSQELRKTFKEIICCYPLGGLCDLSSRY
Description: (§1) The competitive inhibition binding assay was conducted using membranes prepared from hMC3-R, hMC4-R, hMC5-R, and B-16 mouse melanoma cells (containing MC1-R) using 0.4 nM ^125I-NDP-alpha-MSH (New England Nuclear, Boston, Mass., USA) in 50 mM HEPES buffer containing 1 mM MgCl2, 2 mM CaCl2, and 5 mM KCl, at pH 7.2. The assay tube also contained a chosen concentration of the test peptide of this invention complexed to a rhenium metal ion, typically at a 1 μM concentration, for determining its efficacy in inhibiting the binding of ^125I-NDP-alpha-MSH to its receptor. Non-specific binding was measured by complete inhibition of binding of ^125I-NDP-alpha-MSH in the assay with the presence of 1 μM alpha-MSH. Incubation was for 90 minutes at room temperature, after which the assay mixture was filtered and the membranes washed three times with ice cold buffer. The filter was dried and counted in a gamma counter for remaining radioactivity bound to the membranes. 100% specific binding was defined as the difference in radioactivity (cpm) bound to cell membranes in the absence and presence of 1 μM alpha-MSH. The cpm obtained in presence of test compounds were normalized with respect to 100% specific binding to determine the percent inhibition of ^125I-NDP-alpha MSH binding. Each assay was conducted in triplicate and the actual mean valves are described.

hMC3-R = biological target: T2, hMC3-R (Homo sapiens, UniProt P41968); assay: competitive inhibition binding assay, 125I-NDP-alpha-MSH, hMC3-R membranes; conditions: 1 μM test peptide; 0.4 nM 125I-NDP-alpha-MSH; hMC3-R membranes
T2 construct: expressed in transfected cells
T2 sequence (P41968 whole entry): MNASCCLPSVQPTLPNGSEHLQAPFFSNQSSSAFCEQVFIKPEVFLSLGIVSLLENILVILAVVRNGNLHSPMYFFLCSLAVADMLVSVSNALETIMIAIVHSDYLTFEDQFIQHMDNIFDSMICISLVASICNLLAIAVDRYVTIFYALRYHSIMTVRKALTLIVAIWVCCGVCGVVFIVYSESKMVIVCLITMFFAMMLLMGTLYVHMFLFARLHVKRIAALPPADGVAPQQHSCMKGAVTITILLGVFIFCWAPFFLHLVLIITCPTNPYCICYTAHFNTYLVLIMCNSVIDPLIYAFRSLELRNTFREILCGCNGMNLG
Description: as §1

MC1-R = biological target: T3, MC1-R (Mus musculus, UniProt Q01727); assay: competitive inhibition binding assay, 125I-NDP-alpha-MSH, B-16 mouse melanoma cell membranes; conditions: 1 μM test peptide; 0.4 nM 125I-NDP-alpha-MSH; B-16 mouse melanoma cell membranes
T3 construct: membranes prepared from hMC3-R, hMC4-R, hMC5-R, and B-16 mouse melanoma cells (containing MC1-R); endogenous in cells; host or cells: B-16 mouse melanoma cells (membranes)
T3 sequence (Q01727 whole entry): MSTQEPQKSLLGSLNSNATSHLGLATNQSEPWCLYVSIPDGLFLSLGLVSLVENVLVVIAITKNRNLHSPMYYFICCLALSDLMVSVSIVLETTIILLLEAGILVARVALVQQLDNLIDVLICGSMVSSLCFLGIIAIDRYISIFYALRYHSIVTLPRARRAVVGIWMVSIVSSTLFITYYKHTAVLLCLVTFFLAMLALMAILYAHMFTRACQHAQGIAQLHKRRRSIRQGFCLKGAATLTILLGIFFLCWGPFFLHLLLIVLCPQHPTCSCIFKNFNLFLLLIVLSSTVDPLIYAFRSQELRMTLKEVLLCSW
Description: as §1

hMC5-R = biological target: T4, hMC5-R (Homo sapiens, UniProt P33032); assay: competitive inhibition binding assay, 125I-NDP-alpha-MSH, hMC5-R membranes; conditions: 1 μM test peptide; 0.4 nM 125I-NDP-alpha-MSH; hMC5-R membranes
T4 construct: expressed in transfected cells
T4 sequence (P33032 whole entry): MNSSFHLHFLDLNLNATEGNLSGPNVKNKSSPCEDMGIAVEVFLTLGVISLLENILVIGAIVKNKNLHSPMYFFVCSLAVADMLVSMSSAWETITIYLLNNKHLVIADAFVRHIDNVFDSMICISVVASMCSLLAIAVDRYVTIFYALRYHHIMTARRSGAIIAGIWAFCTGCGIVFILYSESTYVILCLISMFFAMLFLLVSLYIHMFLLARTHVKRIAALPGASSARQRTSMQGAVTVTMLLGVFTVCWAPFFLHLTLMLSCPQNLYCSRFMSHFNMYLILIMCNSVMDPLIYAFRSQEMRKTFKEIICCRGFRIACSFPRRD
Description: as §1

bombesin receptor = assay: competitive binding assay, 125I-Bombesin, rat brain membranes; conditions: inhibition of 0.01 nM 125I-Bombesin binding; rat brain membranes; test concentration not given
Description: Rat brain membranes were utilized as the source of bombesin receptor. The competitive binding assay was performed using a procedure as described by Moody T W, Perk C B, Rivier J, Brown, M R. (Proc Natl Acad Sci USA. 75:5372-5376, […]) and adapted to a 96 well format. An aliquot of membranes taken in assay buffer (50 mM Tris and HCl, pH 7.4 containing 1 mg/mL BSA and 2 μg/mL bacitracin) was incubated with 0.01 nM of ^125I-Bombesin with or without varying concentrations of the test compound for 60 min at 4° C. The incubation was terminated by rapid filtration of the assay mixture, followed by washing the filters with ice-cold buffer. The filters were dried and counted in a gamma counter for retained radioactivity. Non-specific binding was measured by including 1 μM Bombesin in the assay tube. The assay was performed in triplicate and results calculated to determine percentage inhibition of the ^125I-Bombesin binding to its receptors by a test compound. The parent polypeptide is shown in Table 6, with metallopeptides having Cys inserted as shown.

Substance	% Inhibition at 1 μM at Melanocortin Receptor 4 (hMC4-R) [%]	% Inhibition at 1 μM at Melanocortin Receptor 3 (hMC3-R) [%]	% Inhibition at 1 μM at Melanocortin Receptor 1 (MC1-R) [%]	% Inhibition at 1 μM at Melanocortin Receptor 5 (hMC5-R) [%]	% Inhibition (bombesin receptor) [%]
Ac-Ser-Tyr-Cys-Ser-Nle-Glu-His-Phe-Arg-Trp-Gly-Lys-Pro-Val-NH2 (chain 1 Ac-SYCS[Nle]; chain 2 EHFRWGKPV-NH2; not fully specified (bridges); printed as Ac-Ser-Tyr-Cys-Ser-Nle-Glu-His-Phe-Arg-Trp-Gly-Lys-Pro-Val-NH2; also: oxorhenium(V) N3S1 chelate (Re(V)=O)) [1-12]	26	15	96	19	–
Ac-Ser-Tyr-D-Cys-Ser-Nle-Glu-His-Phe-Arg-Trp-Gly-Lys-Pro-Val-NH2 (Ac-SY[dC]S[Nle]EHFRWGKPV-NH2; not fully specified (bridges); printed as Ac-Ser-Tyr-D-Cys-Ser-Nle-Glu-His-Phe-Arg-Trp-Gly-Lys-Pro-Val-NH2; numbers in words are those of the source; also: oxorhenium(V) N3S1 chelate (Re(V)=O)) [2-12]	47	21	97	17	–
Ac-Ser-Tyr-Ser-Cys-Nle-Glu-His-Phe-Arg-Trp-Gly-Lys-Pro-Val-NH2 (chain 1 Ac-SYSC[Nle]; chain 2 EHFRWGKPV-NH2; not fully specified (bridges); printed as Ac-Ser-Tyr-Ser-Cys-Nle-Glu-His-Phe-Arg-Trp-Gly-Lys-Pro-Val-NH2; also: oxorhenium(V) N3S1 chelate (Re(V)=O)) [1-11]	21	18	95	6	–
Ac-Ser-Tyr-Ser-D-Cys-Nle-Glu-His-Phe-Arg-Trp-Gly-Lys-Pro-Val-NH2 (Ac-SYS[dC][Nle]EHFRWGKPV-NH2; not fully specified (bridges); printed as Ac-Ser-Tyr-Ser-D-Cys-Nle-Glu-His-Phe-Arg-Trp-Gly-Lys-Pro-Val-NH2; numbers in words are those of the source; also: oxorhenium(V) N3S1 chelate (Re(V)=O)) [2-11]	37	5	95	0	–
Ac-Ser-Tyr-Ser-Nle-Cys-Glu-His-Phe-Arg-Trp-Gly-Lys-Pro-Val-NH2 (Ac-SYS[Nle]CEHFRWGKPV-NH2; not fully specified (bridges); printed as Ac-Ser-Tyr-Ser-Nle-Cys-Glu-His-Phe-Arg-Trp-Gly-Lys-Pro-Val-NH2; numbers in words are those of the source; also: oxorhenium(V) N3S1 chelate (Re(V)=O)) [1-10]	7	0	72	5	–
Ac-Ser-Tyr-Ser-Nle-D-Cys-Glu-His-Phe-Arg-Trp-Gly-Lys-Pro-Val-NH2 (Ac-SYS[Nle][dC]EHFRWGKPV-NH2; numbers in words are those of the source; also: oxorhenium(V) N3S1 chelate via Cys (Re(V)=O)) [2-10]	18	0	65	0	–
Ac-Ser-Tyr-Ser-Nle-Glu-Cys-His-Phe-Arg-Trp-Gly-Lys-Pro-Val-NH2 (Ac-SYS[Nle]ECHFRWGKPV-NH2; not fully specified (bridges); printed as Ac-Ser-Tyr-Ser-Nle-Glu-Cys-His-Phe-Arg-Trp-Gly-Lys-Pro-Val-NH2; numbers in words are those of the source; also: oxorhenium(V) N3S1 chelate (Re(V)=O)) [1-9]	3	0	74	6	–
Pyr-Gln-Arg-Leu-Gly-Asn-Gln-Trp-Ala-Val-Gly-His-Cys-Nle-NH2 (QRLGNQWAVGHC; N-term pyroglutamate; Nle-NH2; rhenium complex; printed: Gln-Arg-Leu-Gly-Asn-Gln-Trp-Ala-Val-Gly-His-Cys-) [7-2]	–	–	–	–	66
Pyr-Gln-Arg-Leu-Gly-Asn-Gln-Trp-Ala-Val-Gly-His-Leu-Cys-NH2 (QRLGNQWAVGHLC; N-term pyroglutamate; C-terminal amide; rhenium complex; printed: Gln-Arg-Leu-Gly-Asn-Gln-Trp-Ala-Val-Gly-His-Leu-Cys-) [7-1]	–	–	–	–	73
Pyr-Gln-Arg-Leu-Gly-Asn-Gln-Trp-Ala-Val-Gly-His-Leu-Cys-Nle-NH2 (QRLGNQWAVGHLC; N-term pyroglutamate; Nle-NH2; rhenium complex; printed: Gln-Arg-Leu-Gly-Asn-Gln-Trp-Ala-Val-Gly-His-Leu-Cys-) [6-2]	–	–	–	–	91
Pyr-Gln-Arg-Leu-Gly-Asn-Gln-Trp-Ala-Val-Gly-His-Leu-Nle-Cys-NH2 ([pGlu]QRLGNQWAVGHL[Nle]C-NH2; numbers in words are those of the source; also: rhenium complex (oxorhenium(V) N3S1 tetradentate chelate via Re=O core)) [6-1]	–	–	–	–	82
Pyr-Gln-Arg-Leu-Gly-Asn-Gln-Trp-Cys-Ala-Val-Gly-His-Leu-Nle-NH2 ([pGlu]QRLGNQWCAVGHL[Nle]-NH2; numbers in words are those of the source; also: rhenium complex (oxorhenium(V) N3S1 tetradentate chelate via Re=O core)) [6-7]	–	–	–	–	62
Pyr-Gln-Arg-Leu-Gly-Asn-Gln-Trp-Cys-Val-Gly-His-Leu-Nle-NH2 (QRLGNQWCVGHL; N-terminal pyroglutamate; C-terminal Nle-amide; printed: Gln-Arg-Leu-Gly-Asn-Gln-Trp-Cys-Val-Gly-His-Leu-) [7-6]	–	–	–	–	91
Pyr-Gln-Arg-Leu-Gly-Cys-Asn-Gln-Trp-Ala-Val-Gly-His-Leu-Nle-NH2 ([pGlu]QRLGCNQWAVGHL[Nle]-NH2; numbers in words are those of the source; also: rhenium complex (oxorhenium(V) N3S1 tetradentate chelate via Re=O core)) [6-10]	–	–	–	–	93
Pyr-Gln-Arg-Leu-Gly-Cys-Gln-Trp-Ala-Val-Gly-His-Leu-Nle-NH2 (QRLGCQWAVGHL; N-term pyroglutamate; Nle-NH2; rhenium complex; printed: Gln-Arg-Leu-Gly-Cys-Gln-Trp-Ala-Val-Gly-His-Leu-) [7-9]	–	–	–	–	93
Trp-Ala-Val-Cys-His-Leu-Leu-NH2 (WAVCHLL-NH2; not fully specified (bridges); printed as Trp-Ala-Val-Cys-His-Leu-Leu-NH2; also: oxorhenium(V) N3S1 chelate (Re=O) with Cys) [11-5]	–	–	–	–	18
Trp-Ala-Val-Cys-His-Leu-NH2 (WAVCHL-NH2; not fully specified (bridges); printed as Trp-Ala-Val-Cys-His-Leu-NH2; also: oxorhenium(V) N3S1 chelate (Re=O) with Cys) [11-8]	–	–	–	–	13
Trp-Ala-Val-Cys-His-NH2 (WAVCH-NH2; not fully specified (bridges); printed as Trp-Ala-Val-Cys-His-NH2; also: oxorhenium(V) N3S1 chelate (Re=O) with Cys) [11-11]	–	–	–	–	−1
Trp-Ala-Val-Cys-NH2 (WAVC-NH2; not fully specified (bridges); printed as Trp-Ala-Val-Cys-NH2; also: oxorhenium(V) N3S1 chelate (Re=O) with Cys) [11-14]	–	–	–	–	8
[dF]QWA[dV]CHLL-NH2 [10-3]	–	–	–	–	7
